Earlier results as cited in paper PMC4900764.

Target: PEX5 (Saccharomyces cerevisiae) (UniProt P35056)
Assay: ITC

Sequence of UniProt P35056 (P35056 whole entry): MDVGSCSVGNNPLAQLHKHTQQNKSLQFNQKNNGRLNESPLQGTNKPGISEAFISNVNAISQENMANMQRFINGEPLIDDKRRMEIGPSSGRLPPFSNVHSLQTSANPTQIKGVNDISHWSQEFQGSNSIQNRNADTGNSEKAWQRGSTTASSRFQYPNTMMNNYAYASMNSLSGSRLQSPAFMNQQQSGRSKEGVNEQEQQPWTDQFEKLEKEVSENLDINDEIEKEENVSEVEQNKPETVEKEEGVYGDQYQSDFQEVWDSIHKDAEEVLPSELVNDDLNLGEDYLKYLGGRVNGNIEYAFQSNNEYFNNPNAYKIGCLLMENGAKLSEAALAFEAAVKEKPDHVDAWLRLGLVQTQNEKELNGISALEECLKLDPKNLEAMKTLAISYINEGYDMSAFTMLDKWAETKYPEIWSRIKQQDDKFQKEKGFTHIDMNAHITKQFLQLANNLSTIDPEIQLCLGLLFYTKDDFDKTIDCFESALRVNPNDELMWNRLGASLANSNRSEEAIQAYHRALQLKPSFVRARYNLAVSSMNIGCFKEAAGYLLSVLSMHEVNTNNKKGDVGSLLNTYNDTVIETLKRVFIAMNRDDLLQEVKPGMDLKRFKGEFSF

Kd: 190 nM
Substance: PCS60 (from UniProt P38137)
